Experimental data reported in patent US8409836B2, “Treatment of cellulosic material and enzymes useful therein” (Roal Oy, priority 2005, dated 2013).

What was measured:
Type in all cases: biochemical
[1] = Hydrolysis with CBH enzyme mixtures, spruce; settings: additional enzymes EGII, bG; 48 h, 45° C., pH 5.0
Summary of the method: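 Washed SO2-steam pre-treated spruce (10 mg dry matter/ml, 0.05 M sodium acetate) hydrolysed 48 h at 45 °C with each CBH/Cel7 (14.5 mg/g) plus T. reesei EGII (3.6 mg/g), or plus EGI, EGII, xylanase and AXE, all with added β-glucosidase. Reducing sugars measured by DNS against glucose.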

[2] = Crystalline cellulose (Avicel) hydrolysis by recombinant cellobiohydrolases; settings: 70° C., pH 5.0, enzyme 1.4 μM
Method: The purified recombinant cellobiohydrolases Ct Cel7A, Ta Cel7A, Ta Cel7A+Tr CBD, Ta Cel7A+Ct CBD, At Cel7A as well as the core version of Ct Cel7A (see below) were tested in equimolar amounts in crystalline cellulose hydrolysis at two temperatures, 45° C. and 70° C.; the purified T. reesei Tr Cel7A and its core version (see below) were used as comparison. The crystalline cellulose (Ph 101, Avicel; Fluka, Bucsh, Switzerland) hydrolysis assays were performed in 1.5 ml tube scale 50 mM sodium acetate, pH 5.0. Avicel was shaken at 45° C. or at 70° C., with the enzyme solution (1.4 μM), and the final volume of the reaction mixture was 325 μl. The hydrolysis was followed up to 24 hours taking samples at six different time points and stopping the reaction by adding 163 μl of stop reagent containing 9 vol of 94% ethanol and 1 vol of 1 M glycine (pH 11). […] The formation of soluble reducing sugars in the supernatant was determined by para-hydroxybenzoicacidhydrazide (PAHBAH) method (Lever, 1972) using a cellobiose standard curve (50 to 1600 μM cellobiose). […] The absorbance of the samples at 405 nm was measured.
The core versions of the cellobiohydrolases harboring a CBD in their native form were obtained as follows: Ct Cel7A and Tr Cel7A were exposed to proteolytic digestion to remove the cellulose-binding domain. […] The product was analysed in SDS-PAGE.

[3] = Hydrolysis with CBH enzyme mixtures, Avicel; settings: additional enzymes EGII, bG; 48 h, 45° C., pH 5.0
Summary of the method: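 Each CBH/Cel7 dosed at 14.5 mg/g substrate dry matter with T. reesei EGII/Cel5A (3.6 mg/g) or with EGI (1.8 mg/g), EGII (1.8 mg/g), xylanase (5000 nkat/g) and AXE (250 nkat/g), plus β-glucosidase (176 nkat/g d.w.). Avicel at 10 mg/ml in 0.05 M sodium acetate, stirred 48 h at 45° C, triplicates; reducing sugars by DNS versus glucose standard.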

[4] = Hydrolysis with CBH enzyme mixtures, willow; settings: additional enzymes EGII, bG, 48 h, 45° C., pH 5.0
Summary of the method: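 Purified CBH/Cel7 (14.5 mg/g substrate dry matter) combined with T. reesei EGII/Cel5A (3.6 mg/g) or with EGI (1.8 mg/g), EGII (1.8 mg/g), xylanase pI 9 (5000 nkat/g) and AXE (250 nkat/g), plus β-glucosidase (176 nkat/g). Washed steam-pretreated willow, 10 mg/ml in 0.05 M sodium acetate, 45° C., 48 h. Reducing sugars by DNS (glucose standard).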

[5] = Hydrolysis with CBH enzyme mixtures, corn stover; settings: additional enzymes EGII, bG, 48 h, 45° C., pH 5.0
Summary of the method: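 Purified recombinant CBH/Cel7 (14.5 mg/g substrate dry matter) combined with T. reesei EGII/Cel5A or an EGI/EGII/xylanase/AXE mixture, plus β-glucosidase (176 nkat/g). Washed wet-oxidized corn stover, 10 mg/ml in 0.05 M sodium acetate, stirred 48 h at 45° C, triplicate. Reducing sugars by DNS against glucose, versus inactivated-enzyme references.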

[6] = Endoglucanase activity on carboxymethyl cellulose; settings: purified cellobiohydrolases, 50° C., pH 5.0
Method: (§1) The specific activity of the preparations was determined using 4-methylumbelliferyl-β-D-lactoside (MUL), 4-methylumbelliferyl-β-D-cellobioside (MUG2) or 4-methylumbelliferyl-β-D-cellotrioside (MUG3) as substrate (van Tilbeurgh et al., 1988) in 0.05 M sodium citrate buffer pH 5 at 50° C. for 10 min. Endoglucanase and xylanase activities were determined by standard procedures (according to IUPAC, 1987) using carboxymethyl cellulose (CMC) and birch glucuronoxylan (Bailey et al., 1992) as substrates. Specific activity against Avicel was calculated on the basis of reducing sugars formed in a 24 h reaction at 50° C., pH 5.0, with 1% substrate and 0.25 μM enzyme dosage. The protein content of the purified enzyme preparations was measured according to Lowry et al., 1951. To characterize the end products of hydrolysis, soluble sugars liberated in 24 h hydrolysis experiment, as described above, were analysed by HPLC (Dionex). Purified cellobiohydrolase I (CBHI/Cel7A) of Trichoderma reesei was used as a reference.
(§2) Acremonium thermophilum ALKO4245 was grown as described in Example 1. The culture supernatant was incubated at 70° C. for 24 hours after which it was concentrated by ultrafiltration. The pure endoglucanase was obtained by sequential purification with hydrophobic interaction and cation exchange chromatography followed by gel filtration. The endoglucanase activity of the fractions collected during purification was determined using carboxymethyl cellulose (CMC) as substrate (procedure of IUPAC 1987). Protein content was measured by BioRad Assay Kit (Bio-Rad Laboratories) using bovine serum albumine as standard.
as §2, with “Thermoascus aurantiacus ALKO4242 was” for “Acremonium thermophilum ALKO4245 was”, “1.” for “1. The culture supernatant was incubated at 70° C. for 24 hours after which it was concentrated by ultrafiltration.”, “and anion” for “and cation”

[7] = pH optimum of recombinant CBH/Cel7 proteins; settings: McIlvaine buffer, pH range 3.0-8.0, MUL, 50° C., 10 min
Method: (§3) The recombinant CBH/Cel7 enzyme preparations were characterized in terms of pH optimum and thermal stability. The pH optimum of the recombinant CBH/Cel7 proteins from Thermoascus aurantiacus, Chaetomium thermophilum, and Acremonium thermophilum were determined in the universal McIlvaine buffer within a pH range of 3.0-8.0 using 4-methylumbelliferyl-β-D-lactoside (MUL) as a substrate (FIG. 3A). The pH optimum for Ct Cel7A and At Cel7A enzymes is at 5.5, above which the activity starts to gradually drop. The pH optimum of the recombinant crude Ta Cel7A is at 5.0 (FIG. 3A). Thermal stability of the recombinant Cel7 enzymes was determined by measuring the MUL activity in universal McIlvaine buffer at the optimum pH with reaction time of 1 h.

[8] = Specific activity against Avicel; settings: 50° C., pH 5.0, 24 h, 1% substrate, 0.25 μM enzyme
Method: as §1

[9] = Xylanase activity on birch xylan; settings: purified cellobiohydrolases, 50° C., pH 5.0
Method: as §1
Acremonium thermophilum ALKO4245 was grown as described in Example 1. The culture supernatant was incubated at 70° C. for 24 hours after which, it was concentrated by ultrafiltration. The pure xylanase was obtained by sequential purification with hydrophobic interaction and cation exchange chromatography followed by gel filtration. The xylanase activity was determined using birch xylan as substrate (procedure of IUPAC 1987). Protein was assayed by BioRad Protein Assay Kit (Bio-Rad Laboratories) using bovine serum albumin as standard.
Thermoascus aurantiacus ALKO4242 was grown as described in Example 1. The pure xylanase was obtained by sequential purification with hydrophobic interaction, anion, and cation exchange chromatography followed by gel filtration. The xylanase activity was determined using birch xylan as substrate (procedure of IUPAC 1987). Protein was assayed by BioRad Protein Assay Kit (Bio-Rad Laboratories) using bovine serum albumin as standard.

[10] = Specific activity on MUG3; settings: purified cellobiohydrolases, 50° C., pH 5.0
Method: as §1

[11] = Thermal stability of recombinant Cel7 enzymes; settings: MUL activity, optimum pH, reaction time 1 h
Method: as §3

[12] = Thermal stability of purified cellobiohydrolases; settings: 0.1% BSA, pH 5.0, 60 min, MUL substrate
Method: Thermal stability of the purified cellobiohydrolases was determined at different temperatures. The reaction was performed in the presence of 0.1% BSA at pH 5.0 for 60 min using 4-methylumbelliferyl-β-D-lactoside as substrate. C. thermophilum ALKO4265 CBH/Cel7A and A. thermophilum ALKO4245 CBH/Cel7A were stable up to 65° and 60° C., respectively. The T. reesei reference enzyme (CBHI/Cel7A) retained 100% of activity up to 55° C.

Specific activity on MUL = settings: purified cellobiohydrolases, 50° C., pH 5.0
Method: as §1

[13] = Specific activity on MUG2; settings: purified cellobiohydrolases, 50° C., pH 5.0
Method: as §1

B1: Ta Cel7A + Tr CBD: Thermoascus aurantiacus Cel7A fused to linker and CBD of Trichoderma reesei CBHI/Cel7A, SEQ ID NO: 28 (protein)
chain: MYQRALLFSFFLAAARAQQAGTVTAENHPSLTWQQCSSGGSCTTQNGKVVIDANWRWVHTTSGYTNCYTGNTWDTSICPDDVTCAQNCALDGADYSGTYGVTTSGNALRLNFVTQSSGKNIGSRLYLLQDDTTYQIFKLLGQEFTFDVDVSNLPCGLNGALYFVAMDADGGLSKYPGNKAGAKYGTGYCDSQCPRDLKFINGQANVEGWQPSANDPNAGVGNHGSCCAEMDVWEANSISTAVTPHPCDTPGQTMCQGDDCGGTYSSTRYAGTCDPDGCDFNPYRQGNHSFYGPGQIVDTSSKFTVVTQFITDDGTPSGTLTEIKRFYVQNGKVIPQSESTISGVTGNSITTEYCTAQKAAFGDNTGFFTHGGLQKISQALAQGMVLVMSLWDDHAANMLWLDSTYPTDADPDTPGVARGTCPTTSGVPADVESQYPNSYVIYSNIKVGPIGSTGNPSGGNPPGGNPPGTTTTRRPATTTGSSPGPTQSHYGQCGGIGYSGPTVCASGTTCQVLNPYYSQCL
Hydrolysis products as reducing sugars, SPRUCE [1]: 4.0 mg/mL
Avicel hydrolysis as compared to T. reesei Cel7A [2]: superior
Hydrolysis products as reducing sugars, Avicel [3]: 5.8 mg/mL
Hydrolysis products as reducing sugars, WILLOW ([4]; EGI, XYL, AXE): 5.9 mg/mL
Hydrolysis products as reducing sugars, WILLOW [4]: 4.0 mg/mL
Hydrolysis products as reducing sugars, WOCS ([5]; EGI, XYL, AXE): 7.2 mg/mL
Hydrolysis products as reducing sugars, WOCS [5]: 4.4 mg/mL

B2: At Cel7A: cellobiohydrolase of Acremonium thermophilum ALKO4245, gene At cel7A, amino acid SEQ ID NO: 6, with CBD (protein)
chain: MYTKFAALAALVATVRGQAACSLTAETHPSLQWQKCTAPGSCTTVSGQVTIDANWRWLHQTNSSTNCYTGNEWDTSICSSDTDCATKCCLDGADYTGTYGVTASGNSLNLKFVTQGPYSKNIGSRMYLMESESKYQGFTLLGQEFTFDVDVSNLGCGLNGALYFVSMDLDGGVSKYTTNKAGAKYGTGYCDSQCPRDLKFINGQANIDGWQPSSNDANAGLGNHGSCCSEMDIWEANKVSAAYTPHPCTTIGQTMCTGDDCGGTYSSDRYAGICDPDGCDFNSYRMGDTSFYGPGKTVDTGSKFTVVTQFLTGSDGNLSEIKRFYVQNGKVIPNSESKIAGVSGNSITTDFCTAQKTAFGDTNVFEERGGLAQMGKALAEPMVLVLSVWDDHAVNMLWLDSTYPTDSTKPGAARGDCPITSGVPADVESQAPNSNVIYSNIRFGPINSTYTGTPSGGNPPGGGTTTTTTTTTSKPSGPTTTTNPSGPQQTHWGQCGGQGWTGPTVCQSPYTCKYSNDWYSQCL
Hydrolysis products as reducing sugars, SPRUCE [1]: 3.3 mg/mL
Hydrolysis products as reducing sugars, Avicel [3]: 5.3 mg/mL
Specific activity, CMC [6]: 26.2 nkat/mg
Hydrolysis products as reducing sugars, WILLOW ([4]; EGI, XYL, AXE): 5.4 mg/mL
Hydrolysis products as reducing sugars, WILLOW [4]: 3.3 mg/mL
pH optimum [7]: 5.5
Specific activity, Avicel [8]: 1.8 nkat/mg
Specific activity, Xylan [9]: 11.3 nkat/mg
Specific activity, MUG3 [10]: 1.3 nkat/mg
Thermal stability at the higher temperatures (≧65° C.) [11]: clearly less stable
Hydrolysis products as reducing sugars, WOCS ([5]; EGI, XYL, AXE): 6.4 mg/mL
Hydrolysis products as reducing sugars, WOCS [5]: 4.5 mg/mL
Thermal stability: temperature up to which stable / 100% of activity retained [12]: ≤ 60 °C
Specific activity, MUL (Specific activity on MUL): 21.5 nkat/mg
Specific activity, MUG2 [13]: 9.2 nkat/mg
